How the values were obtained:
[1] = Activity assay on insoluble substrate: Avicel; type: biochemical
Excerpt: (§1) Corn stover refers to stalks, leaves and cobs that remain in the fields after the corn kernel harvest and is the largest quantity of biomass residue in the United States and as such is also a LC-biomass source for producing cellulosic ethanol in the United States. [C2mim][OAc] pretreated corn stover is used as a substrate to verify enzymatic efficiency on IL-pretreated biomass and a comparison made with [C2mim][OAc] pretreated Avicel. Avicel is a commercially available microcrystalline cellulose and a good model substrate for analysis. Similar assays are done in the presence of [C2mim][OAc] to simulate real biomass processing and saccharification scenarios. The assay products for the reactions in the presence of IL are detected by high performance anion exchange chromatography (HPAEC). The enzymatic hydrolysis reaction is carried out for 8 h for the T. viride cellulase and 15 h for the hyperthermophilic enzymes, taking into account the half-lives of these enzymes. To compare the amounts of total sugars formed between different reactions, the sum of glucose, xylose and cellobiose are calculated and reported as mmoles of sugars formed per min per mg of enzyme used (Table 7). A comparison of assay results between pretreated and untreated substrate indicates a 2-6 fold increase in hydrolysis products after pretreatment irrespective of the enzyme used, thereby confirming that IL pretreatment can increase the efficiency of hydrolysis of cellulose recovered from biomass. […] The catalytic efficiency of the fungal enzyme however, decreases with increasing IL concentration in the reaction mix. After normalizing for the reaction time and enzyme amounts, the amount of sugars formed is undetectable at 15% [C2mim][OAc]. […] The yield of sugars from Tma Cel5A hydrolysis of pretreated Avicel in the presence of 15% IL decreases by 43% compared to 0% IL, while the decrease is only 10% in the case of Pho EG on the same substrate under similar conditions (Table 7).
(§2) The hydrolysis reactions are performed under pH and temperatures for each enzyme as described herein. The reactions are run over a 14 h period with 5-10 mg of enzyme with 6% (w/v) enzyme loading in optimum buffer for each enzyme and run in duplicate. The reaction products are measured on a HPLC and HPAEC. The amounts of sugars detected are shown in mmoles and normalized with regards to amount of enzyme and time of reaction. Different reactions under each enzyme were run under exactly similar conditions.
Enzymatic activity is measured on soluble polysaccharide substrates, CMC, using the 3,5-dinitrosalicylic acid (DNS) reducing sugar assay. Briefly, 2% CMC (w/v) in […] acetate buffer, (100 mM, pH 4.5 and pH 4.8 for T. viride and Tma, respectively, and 100 mM MES buffer, pH 6.4 for P. hori EG) is incubated at 80° C. for 30 min for Tma Cel5A and Pho enzymes and 37° C. and 10 min for T. viride. The solution is cooled down to 4° C. and […] of DNS solution is added. The reactants are incubated at 95° C. for 5 min and cooled down to room temperature before the absorbance is read at 540 nm. The reducing sugar concentration in the sample is calculated from its absorbance using the standard curve of D-glucose and cellobiose. For hydrolysis reactions in the presence of [C2mim][OAc], control reactions with CMC in the presence of IL but without no enzyme is subtracted from each measurement. The solid substrate (Avicel and corn stover) hydrolysis reactions are conducted at 80° C. for 15 h for the recombinant enzymes and at 37° C. for 8 h in the case of T. viride cellulose at the optimum pH for each enzyme. The reaction products are monitored using an Agilent 1200 HPLC equipped with Varian 380-LC Evaporative Light Scattering Detector. The total reaction volumes are […] and shaken at 900 rpm at temperature controlled shakers. Enzyme loadings are 0.4 mg per g of glucan and each data point is measured in triplicate. […]

[2] = Activity assay on insoluble substrate: [C2mim][OAc] pretreated corn stover; type: biochemical; details: pCorn stover
Excerpt: as §1, §2
(§3) [C2mim][OAc] (1 kg, as received, <0.2% moisture specified) is heated to 130° C. in a 1.5 L glass reaction vessel with mechanical stirring and 8% w/w (corn stover, 4.8% moisture) or 10% w/w (Avicel PH-101, 3% moisture). After around 3 h when the majority (corn stover) or all (Avicel) has dissolved, the dissolved corn stover or Avicel is allowed to cool to below 80° C. and is added to 2 L of 95% ethanol with rapid agitation to induce the precipitation of dissolved materials. The resulting slurry is filtered under pressure through polypropylene filter cloth and the solids redispersed in 2 L of additional ethanol. The filtration and redispersion steps are repeated twice to remove most residual ionic liquid and the filter cake dried under vacuum at 40° C. to yield a free-flowing powder product. Residual free ionic liquid remaining in the dried biomass is estimated to be less than 4% (w/w).
(§4) Enzymatic activity is measured on soluble polysaccharide substrates, CMC, using the 3,5-dinitrosalicylic acid (DNS) reducing sugar assay. Briefly, 2% CMC (w/v) in […] acetate buffer, (100 mM, pH 4.5 and pH 4.8 for T. viride and Tma, respectively, and 100 mM MES buffer, pH 6.4 for P. hori EG) is incubated at 80° C. for 30 min for Tma Cel5A and Pho enzymes and 37° C. and 10 min for T. viride. The solution is cooled down to 4° C. and […] of DNS solution is added. The reactants are incubated at 95° C. for 5 min and cooled down to room temperature before the absorbance is read at 540 nm. […]

[3] = Activity assay on insoluble substrate: [C2mim][OAc] pretreated Avicel; type: biochemical; details: for decrease of the yield of sugars from hydrolysis of pretreated Avicel: 15% IL compared to 0% IL; for Sugars produced (sum of glucose, cellobiose and xylose): pAvicel
Excerpt: as §1, §2, §3, §4

[4] = Melting temperature (Tm) of the enzyme at varying EMIM Acetate concentration; type: physicochemical

Row | Molecule | Sugars produced (sum of glucose, cellobiose and xylose) ([1]; 0% [C2mim][OAc]) [µmol/min/mg] | Sugars produced (sum of glucose, cellobiose and xylose) ([1]; 5% [C2mim][OAc]) [µmol/min/mg] | Sugars produced (sum of glucose, cellobiose and xylose) ([1]; 10% [C2mim][OAc]) [µmol/min/mg] | Sugars produced (sum of glucose, cellobiose and xylose) ([1]; 15% [C2mim][OAc]) [µmol/min/mg] | Sugars produced (sum of glucose, cellobiose and xylose) ([2]; 0% [C2mim][OAc]) [µmol/min/mg] | Sugars produced (sum of glucose, cellobiose and xylose) ([2]; 5% [C2mim][OAc]) [µmol/min/mg] | Sugars produced (sum of glucose, cellobiose and xylose) ([2]; 10% [C2mim][OAc]) [µmol/min/mg] | Sugars produced (sum of glucose, cellobiose and xylose) ([2]; 15% [C2mim][OAc]) | decrease of the yield of sugars from hydrolysis of pretreated Avicel [3] [%] | Sugars produced (sum of glucose, cellobiose and xylose) ([3]; 0% [C2mim][OAc]) [µmol/min/mg] | Sugars produced (sum of glucose, cellobiose and xylose) ([3]; 5% [C2mim][OAc]) [µmol/min/mg] | Sugars produced (sum of glucose, cellobiose and xylose) ([3]; 10% [C2mim][OAc]) | Sugars produced (sum of glucose, cellobiose and xylose) ([3]; 15% [C2mim][OAc]) [µmol/min/mg] | other results
1 | Pho EG: cellulase of Pyrococcus horikoshii strain OT3 (Accession No. NP_143072); SEQ ID NO: 21 (protein, listed as Pyrococcus horikoshii) MEGNTILKIVLICTILAGLFGQVVPVYAENTTYQTPTGIYYEVRGDTIYMINVTSGEETPIHLFGVNWFGFETPNHVVHGLWKRNWEDMLLQIKSLGFNAIRLPFCTESVKPGTQPIGIDYSKNPDLRGLDSLQIMEKIIKKAGDLGIFVLLDYHRIGCTHIEPLWYTEDFSEEDFINTWIEVAKRFGKYWNVIGADLKNEPHSVTSPPAAYTDGTGATWGMGNPATDWNLAAERIGKAILKVAPHWLIFVEGTQFTNPKTDSSYKWGYNAWWGGNLMAVKDYPVNLPRNKLVYSPHVYGPDVYNQPYFGPAKGFPDNLPDIWYHHFGYVKLELGYSVVIGEFGGKYGHGGDPRDVIWQNKLVDWMIENKFCDFFYWSWNPDSGDTGGILQDDWTTIWEDKYNNLKRLMDSCSKSSSSTQSVIRSTTPTKSNTSKKICGPAILIILAVFSLLLRRAPR | 0.54 ± 0.1 | 0.5 ± 0.1 | 0.52 ± 0.1 | 0.6 ± 0.08 | 2.14 ± 0.1 | 2.2 ± 0.14 | 2.0 ± 0.2 | 1.9 ± 0.1 µmol/min/mg | 10 | 3.2 ± 0.2 | 3.3 ± 0.2 | 3.1 ± 0.2 µmol/min/mg | 2.9 ± 0.06 | 
2 | Tma Cel5A: wild-type cellulase of Thermatoga maritima strain MSB8 (Accession No. NP_229549); SEQ ID NO: 20 (protein, listed as Thermotoga maritima) MGVDPFERNKILGRGINIGNALEAPNEGDWGVVIKDEFFDIIKEAGFSHVRIPIRWSTHAYAFPPYKIMDRFFKRVDEVINGALKRGLAVVINIHHYEELMNDPEEHKERFLALWKQIADRYKDYPETLFFEILNEPHGNLTPEKWNELLEEALKVIRSIDKKHTIIIGTAEWGGISALEKLSVPKWEKNSIVTIHYYNPFEFTHQGAEWVEGSEKWLGRKWGSPDDQKHLIEEFNFIEEWSKKNKRPIYIGEFGAYRKADLESRIKWTSFVVREMEKRRWSWAYWEFCSGFGVYDTLRKTWNKDLLEALIGGDSIE | 1.1 ± 0.1 | 1.0 ± 0.2 | 0.9 ± 0.1 | 0.6 ± 0.1 | 9 ± 1 | 8 ± 0.9 | 7 ± 1 | 5.9 ± 1^ μmoles min^−1 mg^−1 | 43 | 6.6 ± 0.8 | 6 ± 0.5 | 5.7 ± 1^ μmoles min^−1 mg^−1 | 4 ± 0.5 | Melting Temp. ([4]; 0% EMIM Acetate, listed as T. maritima): 108 °C; Melting Temp. ([4]; 0% EMIM Acetate, listed as T. maritima endoglucanase): 109 °C; Melting Temp. ([4]; 5% EMIM Acetate): 101 °C; Melting Temp. Decrease ([4]; 5% EMIM Acetate vs 0%): 8 °C; Melting Temp. ([4]; 10% EMIM Acetate): 98 °C; Melting Temp. Decrease ([4]; 10% EMIM Acetate vs 0%): 11 °C; Melting Temp. ([4]; 15% EMIM Acetate): 93 °C; Melting Temp. Decrease ([4]; 15% EMIM Acetate vs 0%): 16 °C; Melting Temp. ([4]; 20% EMIM Acetate): 89 °C; Melting Temp. Decrease ([4]; 20% EMIM Acetate vs 0%): 20 °C
